# From patent US20240417428A1 (ZHEJIANG UNIVERSITY, published 2024)
# Bridges are numbered along the chain shown (N, C = ends). Where no end group is shown, it is not given here.
# Assays:
# Assay in all cases: cell-based or functional assay
# mouse TRPM8 channel [1] = molecular target: T1, mouse TRPM8 channel (mouse, UniProt Q8R4D5 1-1104)
# TRPV2 [2] = molecular target: T2, TRPV2
# T2 sequence (Q9Y5S1 whole entry, species assumed, looked up): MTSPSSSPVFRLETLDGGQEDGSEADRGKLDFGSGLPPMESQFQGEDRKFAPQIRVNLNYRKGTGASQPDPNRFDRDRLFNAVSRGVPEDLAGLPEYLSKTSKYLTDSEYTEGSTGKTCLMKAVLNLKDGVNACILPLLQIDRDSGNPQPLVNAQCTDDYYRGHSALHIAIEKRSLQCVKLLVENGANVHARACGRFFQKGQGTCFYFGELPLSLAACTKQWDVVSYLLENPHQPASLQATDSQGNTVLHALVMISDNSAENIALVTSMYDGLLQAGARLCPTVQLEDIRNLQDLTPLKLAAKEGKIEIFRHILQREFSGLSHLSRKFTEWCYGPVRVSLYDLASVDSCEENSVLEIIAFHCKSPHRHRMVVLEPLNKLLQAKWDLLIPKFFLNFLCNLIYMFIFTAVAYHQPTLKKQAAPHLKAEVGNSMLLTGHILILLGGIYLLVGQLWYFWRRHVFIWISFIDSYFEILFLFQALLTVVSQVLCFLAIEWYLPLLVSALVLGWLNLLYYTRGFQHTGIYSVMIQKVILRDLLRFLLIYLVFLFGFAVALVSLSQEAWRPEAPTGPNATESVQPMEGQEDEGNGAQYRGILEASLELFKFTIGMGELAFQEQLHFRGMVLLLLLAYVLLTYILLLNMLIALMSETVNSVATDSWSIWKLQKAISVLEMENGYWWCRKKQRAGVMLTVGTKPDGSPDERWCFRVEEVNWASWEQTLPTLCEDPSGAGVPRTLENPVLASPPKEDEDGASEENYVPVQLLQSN
# TRPM4-K1045A = molecular target: TRPM4-K1045A
# TRPV3 = molecular target: TRPV3
# TRPV2 [3] = molecular target: T2, TRPV2; remark: listed apart in the source
# mouse TRPM8 channel [4] = molecular target: T1, mouse TRPM8 channel; remark: listed apart in the source
# Nav1.7 = molecular target: Nav1.7
# TRPV1 = molecular target: TRPV1
# TRPA1 = molecular target: TRPA1
# Nav1.5 = molecular target: Nav1.5
# TRPM2 = molecular target: TRPM2
# T1 sequence (Q8R4D5 whole entry): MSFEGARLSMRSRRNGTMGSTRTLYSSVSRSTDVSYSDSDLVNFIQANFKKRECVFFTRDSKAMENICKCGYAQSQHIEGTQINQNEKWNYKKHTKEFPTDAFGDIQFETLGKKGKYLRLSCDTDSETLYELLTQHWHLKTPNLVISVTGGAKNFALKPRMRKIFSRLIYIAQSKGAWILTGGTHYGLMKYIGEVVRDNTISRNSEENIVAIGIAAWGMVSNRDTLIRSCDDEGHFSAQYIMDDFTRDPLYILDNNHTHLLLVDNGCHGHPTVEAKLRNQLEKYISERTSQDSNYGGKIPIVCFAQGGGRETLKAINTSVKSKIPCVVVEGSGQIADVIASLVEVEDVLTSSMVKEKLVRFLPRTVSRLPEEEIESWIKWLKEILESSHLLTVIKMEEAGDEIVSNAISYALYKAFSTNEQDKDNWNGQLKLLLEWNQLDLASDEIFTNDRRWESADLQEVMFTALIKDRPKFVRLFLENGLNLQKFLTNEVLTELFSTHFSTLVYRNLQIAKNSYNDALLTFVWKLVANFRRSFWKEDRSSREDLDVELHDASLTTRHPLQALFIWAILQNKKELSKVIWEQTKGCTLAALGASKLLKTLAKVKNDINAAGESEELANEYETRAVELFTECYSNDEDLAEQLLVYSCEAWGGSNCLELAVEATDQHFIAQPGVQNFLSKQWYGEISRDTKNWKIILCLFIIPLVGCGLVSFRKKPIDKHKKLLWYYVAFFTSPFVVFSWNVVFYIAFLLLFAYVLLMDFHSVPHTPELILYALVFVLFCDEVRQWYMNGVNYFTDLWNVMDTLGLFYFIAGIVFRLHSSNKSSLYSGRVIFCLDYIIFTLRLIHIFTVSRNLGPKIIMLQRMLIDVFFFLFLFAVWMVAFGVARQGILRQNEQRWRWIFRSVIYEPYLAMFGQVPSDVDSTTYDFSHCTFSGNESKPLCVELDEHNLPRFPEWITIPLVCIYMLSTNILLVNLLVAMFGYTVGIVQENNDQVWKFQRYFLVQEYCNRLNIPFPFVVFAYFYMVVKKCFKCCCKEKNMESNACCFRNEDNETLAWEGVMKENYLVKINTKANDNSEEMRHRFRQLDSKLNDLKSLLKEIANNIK
# TRPA1, sequence (O75762 whole entry): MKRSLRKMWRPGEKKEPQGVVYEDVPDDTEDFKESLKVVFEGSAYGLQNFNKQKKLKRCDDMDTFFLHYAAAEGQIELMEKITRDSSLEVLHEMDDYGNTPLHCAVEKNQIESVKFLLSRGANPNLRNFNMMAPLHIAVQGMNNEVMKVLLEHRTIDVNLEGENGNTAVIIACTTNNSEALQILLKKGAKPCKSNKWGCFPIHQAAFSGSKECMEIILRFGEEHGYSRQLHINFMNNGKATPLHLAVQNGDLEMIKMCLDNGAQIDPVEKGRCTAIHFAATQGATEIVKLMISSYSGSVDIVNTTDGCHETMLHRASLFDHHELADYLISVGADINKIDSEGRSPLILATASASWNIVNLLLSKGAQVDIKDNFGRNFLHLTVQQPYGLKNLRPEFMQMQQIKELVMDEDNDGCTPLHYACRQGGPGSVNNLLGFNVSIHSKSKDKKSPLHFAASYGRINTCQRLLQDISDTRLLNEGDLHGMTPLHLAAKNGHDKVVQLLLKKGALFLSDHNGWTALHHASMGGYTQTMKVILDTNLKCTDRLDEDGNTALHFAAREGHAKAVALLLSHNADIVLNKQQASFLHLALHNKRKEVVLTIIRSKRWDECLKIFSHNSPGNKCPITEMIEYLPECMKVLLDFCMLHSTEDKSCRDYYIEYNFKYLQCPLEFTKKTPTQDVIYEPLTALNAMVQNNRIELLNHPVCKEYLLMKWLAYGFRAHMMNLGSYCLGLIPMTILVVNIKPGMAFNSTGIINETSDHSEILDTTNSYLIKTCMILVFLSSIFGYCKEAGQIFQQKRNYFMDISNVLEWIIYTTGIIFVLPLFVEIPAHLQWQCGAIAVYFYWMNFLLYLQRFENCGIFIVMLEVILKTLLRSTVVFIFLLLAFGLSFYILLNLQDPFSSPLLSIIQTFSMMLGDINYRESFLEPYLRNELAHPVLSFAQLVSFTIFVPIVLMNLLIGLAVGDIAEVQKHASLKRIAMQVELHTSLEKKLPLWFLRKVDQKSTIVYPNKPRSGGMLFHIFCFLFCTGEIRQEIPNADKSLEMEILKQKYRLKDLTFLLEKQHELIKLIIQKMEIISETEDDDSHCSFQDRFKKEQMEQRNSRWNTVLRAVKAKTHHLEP
# TRPV3, sequence (Q8NET8 whole entry): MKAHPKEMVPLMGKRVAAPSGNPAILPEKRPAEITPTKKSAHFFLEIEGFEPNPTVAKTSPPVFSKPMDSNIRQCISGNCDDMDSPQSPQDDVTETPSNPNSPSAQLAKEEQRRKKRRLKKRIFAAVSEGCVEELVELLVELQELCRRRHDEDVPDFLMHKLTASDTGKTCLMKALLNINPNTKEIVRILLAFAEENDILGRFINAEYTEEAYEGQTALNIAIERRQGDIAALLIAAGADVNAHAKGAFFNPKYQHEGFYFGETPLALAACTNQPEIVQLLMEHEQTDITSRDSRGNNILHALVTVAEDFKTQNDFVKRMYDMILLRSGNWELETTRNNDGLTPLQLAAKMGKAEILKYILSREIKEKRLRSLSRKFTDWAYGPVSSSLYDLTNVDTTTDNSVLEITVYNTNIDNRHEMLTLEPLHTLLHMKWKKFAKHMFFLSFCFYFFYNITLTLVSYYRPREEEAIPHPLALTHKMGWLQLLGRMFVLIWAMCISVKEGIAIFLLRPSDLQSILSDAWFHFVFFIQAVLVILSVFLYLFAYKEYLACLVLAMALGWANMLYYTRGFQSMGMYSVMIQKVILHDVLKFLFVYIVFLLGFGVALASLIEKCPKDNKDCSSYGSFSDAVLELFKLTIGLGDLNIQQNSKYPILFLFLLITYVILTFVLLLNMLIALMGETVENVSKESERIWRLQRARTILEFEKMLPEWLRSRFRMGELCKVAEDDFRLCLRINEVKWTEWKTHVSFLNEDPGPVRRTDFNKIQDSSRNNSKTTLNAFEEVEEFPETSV
Binder,"half-inhibitory concentration (IC50), electrophysiology (mouse TRPM8 channel [1])","half-inhibitory concentration (IC50), electrophysiology (TRPV2 [2])","IC50, inhibition of ligand-activated channel current, electrophysiology (TRPM4-K1045A)","IC50, inhibition of ligand-activated channel current, electrophysiology (TRPV3)","IC50, inhibition of ligand-activated channel current, electrophysiology (TRPV2 [3])","IC50, inhibition of menthol-activated TRPM8 current, whole-cell electrophysiology (mouse TRPM8 channel [4])","IC50, inhibition of sodium channel current, electrophysiology (Nav1.7)","IC50, inhibition of ligand-activated channel current, electrophysiology (TRPV1)","IC50, inhibition of channel current, electrophysiology (TRPA1)","IC50, inhibition of sodium channel current, electrophysiology (Nav1.5)","IC50, inhibition of ligand-activated channel current, electrophysiology (TRPM2)"
CRNSRAAHDSQKC (disulfide 1-13) [polypeptide DeC-1.1],133 µM,,,,,,,,,,
CRRDRARHYRQRC (disulfide 1-13) [polypeptide DeC-1.2],,~10 µM,> 10 µM,> 100 µM,> 5 µM,4.5 nM,> 100 µM,> 100 µM,> 100 µM,> 100 µM,> 100 µM
